The labels stand for the following.
B1: DCN1-like protein 3 (Homo sapiens), Q8IWE4 (parent)
chain: MGQCVTKCKNPSSTLGSKNGDREPSNKSHSRRGAGHREEQVPPCGKPGGDILVNGTKKAEAATEACQLPTSSGDAGRESKSNAEESSLQRLEELFRRYKDEREDAILEEGMERFCNDLCVDPTEFRVLLLAWKFQAATMCKFTRKEFFDGCKAISADSIDGICARFPSLLTEAKQEDKFKDLYRFTFQFGLDSEEGQRSLHREIAIALWKLVFTQNNPPVLDQWLNFLTENPSGIKGISRDTWNMFLNFTQVIGPDLSNYSEDEAWPSLFDTFVEWEMERRKREGEGRGALSSGPEGLCPEEQT

Variants of B1 are the subject of this assay. The settings on record: with cul3_human CUL3, Q13618.
As to MGQCVTKCKNPSSTLGSKNGDREPSNKSHSRRGAGHREEQVPPCGKPGGDILVNGTKKAEAATEACQLPTSSGDAGRESKSNAEESSLQRLEELFRRYKDEREDAILEEGMERFCNDLCVDPTEFRVLLLAWKFQAATMCKFTRKEFFDGCKAISADSIDGICARFPSLLTEAKQEDKFKDLYRFTFQFGLDSEEGQRSLHREIAIALWKLVFTQNNPPVLDQWLNFLTENPSGIKGISRATWNMFLNFTQVIGPDLSNYSEDERWPSLFATFVEWEMERRKREGEGRGALSSGPEGLCPEEQT [D241A;A265R;D271A], the “effect of a mutation on the interaction” value is recorded as “disrupting interaction strength”.

The record behind these values is IntAct's records for PubMed 19617556.
